PMC5818487

What was measured:
Experiment in all cases: SPR; Biacore T200; ICAM-1-Fc proteins captured on Protein A on a CM5 chip (1108 ± 108 RU); DBLβ domains flowed as twofold dilution series 1000-7.81 nM at 30 µl/min, 240 s association, 600 s dissociation; 10 mM HEPES pH 7.2, 250 mM NaCl, 0.05% Tween-20; global 1:1 model; 1 mg/ml ssDNA added to BC12a DBLβ
[1] = molecular target: ICAM-1 Kilifi (K29M) Fc fusion protein (UniProt P05362)
[2] = molecular target: ICAM-1 L42A mutant Fc fusion protein (UniProt P05362)
[3] = molecular target: ICAM-1 L44A mutant Fc fusion protein (UniProt P05362)
[4] = molecular target: ICAM-1 S22A mutant Fc fusion protein (UniProt P05362)
[5] = molecular target: ICAM-1 domains 1-5 Fc fusion protein (reference, wild type) (UniProt P05362)

With “J1a DBLβ domain (PfEMP1 of the dominantly expressed var gene of isolate J1) (domain or fragment)” the % ICAM-1^D1D5 binding [1] was 5.4%, the % ICAM-1^D1D5 binding [2] was 1.4% and the % ICAM-1^D1D5 binding [3] was 2.7%. It also gave a % ICAM-1^D1D5 binding [4] of 10.9%, a Kd [5] of 51.7 nM and a koff [5] of 0.00153 s⁻¹. It also gave a kon [5] of 29600 M⁻¹ s⁻¹.
Work on “IT4var13 DBLβ domain (from UniProt A3R6S0 1-3274) (domain or fragment)” yielded a % ICAM-1^D1D5 binding [1] of 8.9%, a % ICAM-1^D1D5 binding [2] of 3.1% and a % ICAM-1^D1D5 binding [3] of 10%. The % ICAM-1^D1D5 binding [4] was 94.5%, the Kd [4] was 9.82 nM and the Kd [5] was 3.45 nM. It also gave a koff [5] of 0.000125 s⁻¹ and a kon [5] of 36100 M⁻¹ s⁻¹.
In the case of “BC12a DBLβ domain (PfEMP1 of the dominantly expressed var gene of isolate BC12) (domain or fragment)”, the Kd [5] is reported as 197 nM, the koff [5] is reported as 0.000944 s⁻¹ and the kon [5] is reported as 4800 M⁻¹ s⁻¹.
